{"source": "paper PMC11974885", "about": "(bioRxiv, 2025)", "binders": {"B1": {"name": "DbfQ (processed, 6xHis tag-cleaved) (natural protein)", "chain": "DNKVRDWEQGSYREGTQIEIDEDQDDVYRAVQKGLIRPFAELYATVDQQLNGRLIKVELDEDDDEWIYELKLVYDNQVFRVEYNAATLELMSIRGRNVIRAIKK", "modifications": "Red-NHS dye, amine-reactive, covalent (in the MST experiments only)"}}, "biological_target": "T1, DbfS sensory domain, DbfS^SD-6xHis (Vibrio cholerae, UniProt Q9KRK1 43-171)", "T1 sequence": "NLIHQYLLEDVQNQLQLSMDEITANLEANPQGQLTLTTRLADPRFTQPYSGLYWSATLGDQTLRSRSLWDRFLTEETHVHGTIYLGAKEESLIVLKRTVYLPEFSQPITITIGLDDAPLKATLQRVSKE", "experiment": "MST", "data": [{"binder": "B1", "values": [{"measurement": "Kd", "result": 30, "unit": "nM"}]}]}
